Source: patent publication US9074002B2, “PTP1B inhibitors” (Cold Spring Harbor Laboratory, priority 2009, dated 2015)
“Also recorded” adds a separate entry of the source.

T1: PTP1B-OX (Homo sapiens, UniProt P18031)
T1 construct: made in house; host or cells: E. coli BL21 (pET19b)
T1 sequence (P18031 3-277): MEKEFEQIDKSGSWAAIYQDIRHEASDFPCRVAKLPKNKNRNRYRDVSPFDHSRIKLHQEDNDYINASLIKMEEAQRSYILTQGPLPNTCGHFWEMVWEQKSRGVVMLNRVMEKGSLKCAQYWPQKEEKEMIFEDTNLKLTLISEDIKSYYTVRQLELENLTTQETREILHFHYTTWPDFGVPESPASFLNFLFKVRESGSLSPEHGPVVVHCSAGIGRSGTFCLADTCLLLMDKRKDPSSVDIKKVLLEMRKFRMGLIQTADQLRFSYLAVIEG

T2: PTP1B (reduced, active) (Homo sapiens, UniProt P18031)
T2 construct: made in house; host or cells: E. coli BL21 (pET19b)
T2 sequence (P18031 3-277 limits assumed): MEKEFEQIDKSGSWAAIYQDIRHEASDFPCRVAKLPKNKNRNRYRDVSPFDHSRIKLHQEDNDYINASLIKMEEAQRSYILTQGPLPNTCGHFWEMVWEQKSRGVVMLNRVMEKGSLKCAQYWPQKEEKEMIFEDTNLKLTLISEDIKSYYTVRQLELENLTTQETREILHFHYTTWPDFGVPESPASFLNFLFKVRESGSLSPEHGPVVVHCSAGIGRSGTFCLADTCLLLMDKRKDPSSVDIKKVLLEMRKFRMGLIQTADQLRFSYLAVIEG

T3: endogenous PTP1B-OX (Homo sapiens, UniProt P18031)
T3 construct: endogenous in cells; host or cells: 293T cells (transfected only with the scFv intrabody)
T3 sequence (P18031 1-435): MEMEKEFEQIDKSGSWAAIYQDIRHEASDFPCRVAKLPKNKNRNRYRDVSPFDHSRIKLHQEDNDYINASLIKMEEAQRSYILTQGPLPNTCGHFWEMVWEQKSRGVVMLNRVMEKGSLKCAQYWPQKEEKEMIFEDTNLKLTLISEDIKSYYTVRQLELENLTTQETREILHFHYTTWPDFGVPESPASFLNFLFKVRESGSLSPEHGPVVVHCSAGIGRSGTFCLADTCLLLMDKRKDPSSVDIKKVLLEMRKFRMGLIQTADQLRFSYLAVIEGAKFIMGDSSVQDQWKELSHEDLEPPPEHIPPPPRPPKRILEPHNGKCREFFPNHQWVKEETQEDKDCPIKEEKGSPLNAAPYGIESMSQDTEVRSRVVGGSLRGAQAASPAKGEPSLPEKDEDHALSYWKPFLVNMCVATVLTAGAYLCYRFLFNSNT

T4: endogenous PTP1B under reducing conditions (Homo sapiens, UniProt P18031)
T4 construct: endogenous in cells; host or cells: 293T cells (transfected only with the scFv intrabody)
T4 sequence (P18031 1-435): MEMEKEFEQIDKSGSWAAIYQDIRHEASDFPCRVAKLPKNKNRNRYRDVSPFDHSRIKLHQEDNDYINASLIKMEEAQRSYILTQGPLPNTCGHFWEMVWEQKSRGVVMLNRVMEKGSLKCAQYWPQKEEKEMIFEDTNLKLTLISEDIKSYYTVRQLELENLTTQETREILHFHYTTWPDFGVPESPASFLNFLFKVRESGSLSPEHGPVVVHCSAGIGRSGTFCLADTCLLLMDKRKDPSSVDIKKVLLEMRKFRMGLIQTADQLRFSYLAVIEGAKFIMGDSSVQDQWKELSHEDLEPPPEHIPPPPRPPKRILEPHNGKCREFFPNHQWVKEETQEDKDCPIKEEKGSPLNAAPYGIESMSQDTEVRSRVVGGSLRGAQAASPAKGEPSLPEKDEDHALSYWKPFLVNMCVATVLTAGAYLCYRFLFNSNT


How the values were obtained:
PTP1B-OX = target: T1, PTP1B-OX; assay: Inhibition of reactivation of reversibly oxidized PTP1B by reducing agent (RCML phosphatase assay); type: biochemical; conditions: PTP1B oxidized with H2O2, buffer exchange, TCEP added; FIG. 2
Protocol: (§1) Applicant's hypothesis was that scFvs that are able to bind to and stabilize the oxidized conformation of PTP1B in solution would inhibit reactivation by reducing agent, but have no direct inhibitory effect on phosphatase activity in assays in vitro. Activity was measured using ^32P-labeled pTyr-Reduced Carboxamidomethylated and Maleylated Lysozyme as substrate. Applicant established conditions in which wild type PTP1B could be reversibly oxidized in vitro. PTP1B was inactivated following addition of H2O2. […] Applicant validated this approach further, by testing the effects of expressing one of the scFvs (scFv45) as a single chain antibody fragment “intrabody” to PTP1B, using 293T cells as the expression system. This intrabody was expressed transiently and then tested for effects on insulin signaling, focusing initially on the tyrosine phosphorylation status of the beta-subunit of the insulin receptor and insulin receptor substrate (IRS-1).
(§2) Reduced carboxamidomethylated and maleylated lysozyme (RCML) was labeled with ^32P using recombinant GST-FER kinase to stoichiometries up to 0.8 (mol ^32P incorporated/mol of protein). This ^32P-Labeled phospho-tyrosyl RCML was used as the substrate in the in-solution phosphatase assay for screening the conformation sensor scFvs. Recombinant PTP1B was reversibly oxidized and transiently inactivated with H2O2 (5× molar excess of the protein). […] Purified bacterially expressed scFvs (100× molar excess of PTP1B) were incubated with PTP after H2O2 treatment and its removal and the effect of individual scFv on stabilizing the reversibly oxidized conformation was assessed by the phosphatase assay under reducing condition.
In a different experiment, conditions were established in which wild type PTP1B could be reversibly oxidized in vitro. […] Addition of the reducing agent alone had no substantial effect on PTP1B activity (FIGS. 1 and 2, “PTP1B”).

PTP1B (reduced, active) = target: T2, PTP1B (reduced, active); assay: Direct effect of scFvs/antibodies on PTP1B phosphatase activity (32P-pTyr-RCML substrate); type: biochemical; conditions: 32P-labeled pTyr-RCML substrate, FIG. 1
Protocol: as §1, §2
In order to screen the isolated scFvs for those that inhibit reactivation of PTP1B-OX by reducing agent, but have no direct inhibitory effect on phosphatase activity in assays in vitro, the effect of six scFvs (scFv20, scFv34, scFv45, scFv57, scFv64 and scFv106) on PTP1B activity was determined. PTP1B activity was measured using 32P-labeled pTyr-Reduced Carboxamidomethylated and Maleylated Lysozyme as substrate (FIGS. 1 and 2). Addition of the reducing agent TCEP alone had no substantial effect in PTP1B activity was assessed.

endogenous PTP1B-OX = target: T3, endogenous PTP1B-OX; assay: Intrabody interaction in 293T cells treated with H2O2 (Ni-NTA pull down / anti-PTP1B immunoprecipitation); type: cell-based; conditions: 1 mM H2O2 5 minutes
Protocol: (§3) One of the positive candidate scFvs (scFv45) was cloned in pcDNA3.2/V5-GW/D-TOPO expression vector and transiently expressed in mammalian cells as stable intracellular antibody (aka intrabody) (FIG. 10). To detect PTP1B-OX and scFv45 interaction in mammalian cells, scFv45 was overexpressed in 293T cells as described herein (See Example 4) and 48 hours post transfection the cells were serum-starved for 16 hours in growth medium (DMEM, low glucose) without serum (FBS), then incubated with 1 mM H2O2 (in growth medium without serum) for 5 minutes at 37° C. or treated with 20 mM NAC (in growth medium without serum) for 1 hour at 37° C. Cells treated with H2O2 were washed twice with cold (4° C.) PBS and lysed in lysis buffer (25 mM HEPES, pH 7.4, 150 mM NaCl, 0.25% Deoxychloate, 1% TritonX-100, 25 mM NaF, 10 mM MgCl2, 1 mM EDTA, 10% Glycerol, 0.5 mM PMSF, 10 mM Benzamidine, protease inhibitor cocktail). Cells treated with NAC were lysed with lysis buffer containing 2 mM TCEP to ensure a post-lysis reducing environment. Interaction between PTP1B and intrabody45 were tested by pulling down the protein complex from 1 mg of total cell lysate with Ni-NTA agarose or by immunoprecipitating PTP with anti-PTP1B (FG6). For the pull down experiment, Ni-NTA agarose beads were incubated with the lysates (both oxidized and reduced) at 4° C. Protein complex bound to the Ni-NTA agarose beads was pulled down and washed three times; first with lysis buffer containing 20 mM imidazole followed by two more washes with wash buffer (PBS, pH 7.4, 20 mM imidazole, 0.05% BSA, 0.05% Tween-20 and protease inhibitors). Applicant used 20 mM imidazole in the wash buffer to reduce the non-specific binding of proteins with the Ni-NTA agarose beads. The complex was eluted with wash buffer containing 500 mM imidazole with gentle shaking at 4° C. and the eluate was mixed with SDS sample buffer with DTT. For the immunoprecipitation experiments, 1 mg of total cell lystates (both oxidized and reduced) was incubated with anti-PTP1B antibody (FG6) at 4° C. The interacting protein complex was immunoprecipitated after incubating the lysate-antibody mixture with protein A/G Sepharose at 4° C. After immunoprecipitation, Sepharose beads were washed three times; first with lysis buffer followed by two more washes with wash buffer (PBS, pH 7.4, 0.05% BSA, 0.05% Tween-20 and protease inhibitors). The Sepharose beads were then heated at 90° C. in 2×SDS sample buffer with DTT. Proteins from the pulled down or immunoprecipitated complex were separated by SDS-PAGE. PTP was detected with anti-PTP1B antibody (FG6) and the intrabodies were detected with anti-HA (3F10)-HRP antibody [anti-HA (3F10)-HRP, Roche] by immunoblotting.
In the initial in vitro phosphatase screening assay using reversibly oxidized (with H2O2) recombinant PTP1B, Applicant found four different PTP1B-OX specific scFvs (scFv45, scFv57, scFv64 and scFv106) from the initial pool of 12 different scFvs. […] Applicant has also shown that scFv45, expressed as an intrabody in mammalian cells, can bind to endogenous PTP1B-OX but not endogenous PTP under reducing conditions. Further assessment was carried out to identify additional PTP1B-OX-specific intrabodies. Additional scFvs have been subcloned in pcDNA3.2/V5-GW/D-TOPO mammalian expression vector (FIG. 10) from their respective phagemid constructs. After transient overexpression of these scFvs as intrabodies in 293T cells, the interaction between endogenous PTP1B and these intrabodies in both H2O2-treated cells and cells was observed under reducing condition (treated with NAC and lysed with lysis buffer containing TCEP). […] All can be used in the methods and compositions described herein. Additional scFvs, such as some or all of the 137 selected individual scFvs from the library, can be similarly tested by in vitro screening and/or by binding assay in mammalian cells.

[1] = target: T4, endogenous PTP1B under reducing conditions; assay: Intrabody interaction in 293T cells under reducing condition (NAC, TCEP) (Ni-NTA pull down / immunoprecipitation); type: cell-based; conditions: 20 mM NAC, lysis buffer with 2 mM TCEP, FIGS. 11, 12
Protocol: as §3
In the initial in vitro phosphatase screening assay using reversibly oxidized (with H2O2) recombinant PTP1B, Applicant found four different PTP1B-OX specific scFvs (scFv45, scFv57, scFv64 and scFv106) from the initial pool of 12 different scFvs. […] Applicant has also shown that scFv45, expressed as an intrabody in mammalian cells, can bind to endogenous PTP1B-OX but not endogenous PTP under reducing conditions. Further assessment was carried out to identify additional PTP1B-OX-specific intrabodies. Additional scFvs have been subcloned in pcDNA3.2/V5-GW/D-TOPO mammalian expression vector (FIG. 10) from their respective phagemid constructs. […]

Molecule | inhibition of reactivation of PTP1B-OX by reducing agent (restoration of PTP1B activity after reversible oxidation) (PTP1B-OX) | direct effect on PTP1B activity (PTP1B (reduced, active)) | binding of intrabody to endogenous PTP1B-OX (endogenous PTP1B-OX; FIGS. 11, 12) | binding of intrabody to endogenous PTP1B under reducing conditions [1] | binding of intrabody to endogenous PTP1B-OX (endogenous PTP1B-OX; FIGS. 11, 12, listed as scFv 136)
scFv106: scFv binding PTP1B-OX, SEQ ID NO: 29 and 133 (protein) scFv: MKKTAIAIAVALAGFATVAQAALTQPSSVSANPGETVKITCSGDSSDYGYGWYQQKSPGSAPVTVTYSNNQRPPNIPSRFSGSASGSTATLTITGVQVEDEAVYYCGSEDSTTDAVFGAGTTLTVLGQSSRSSAMTLDESGGGLQTPGGALSLVCKASGFTFSSYDMGWVRQAPGKGLEYVAGITNDGRYASYGSAVDGRATISRDNGQSTVRLQLNNLRAEDTGTYYCARDDGSGWTGNTIDTWGHGTEVIVSSTSGQAGQHHHHHHGAYPYDVPDYAS | substantial inhibition of the restoration of PTP1B activity | no direct inhibition of PTP activity | bound to endogenous PTP1B-OX strongly; also recorded: co-pulldown of PTP1B-OX in the presence of H2O2 | not in the presence of NAC and TCEP | –
scFv64: scFv binding PTP1B-OX, SEQ ID NO: 28 and 97 (protein) scFv: MKKTAIAIAVALAGFATVAQAALTQPSSVSANPGDPLKITCSGDSSGYGYGWYQQKSPGSAPVTVIYNNNKRPSDIPSRFSGSKSGSTGTLTITGVQAEDEAVYFCGSEDSNTDAVFGAGTTLTVLGQSSRSSTVTLDESGGGLQTPGGTLSLACKASGFTFSGYDMGWVRQAPGKGLEYVAGITSDGRYASYGSAVDGRAAIWRDNGQSTVRLQLKNLRTEDTATYYCARNDGSGWNGNNIDAWGHGTEVIVSSTSGQAGQHHHHHHGAYPYDVPDYAS | substantial inhibition of the restoration of PTP1B activity | no direct inhibition of PTP activity | bound weakly to PTP1B-OX | – | –
scFv136: additional scFv, SEQ ID NO: 153 and 160 (protein) scFv: MKKTAIAIAVALAGFATVAQAALTQPSSVSANPGETVKITCSGGSYSYGWYQQKSPGSAPVTVIYSSDKRPSDIPSRFSGSKSGSTSTLTITGVQAEDEAVYYCGSRDSNYVGIFGAGTTLTVLGQSSRSSTVTLDESGGGLQTPGGALSLVCKASGFTFSSYEMQWVRQAPGKGLEFVAAISSDGSYTNYGAAVQGRATISRDNGQSTVRLQLSNLRAEDTATYYCARSPGGYTWWPGAAGGIDAWGHGTEVIVSSTSGQAGQHHHHHHGAYPYDVPDYAS | – | – | co-pulldown of PTP1B-OX in the presence of H2O2 | not in the presence of NAC and TCEP | bound weakly to PTP1B-OX
